The text below walks through data of patent US20240316157A1, “PHARMACEUTICAL COMPOSITION OF PCSK9 INHIBITOR AND GLP-1 RECEPTOR AGONIST” (Gan & Lee Pharmaceuticals Co., Ltd., priority 2021, published 2024).

Series [1] relates to wild-type hamsters. Kind of series: Effect of the combination of Alirocumab and semaglutide on blood glucose in hamsters. The format is in vivo, hamster. Particulars: for Blood glucose (relative concentration): 7th day after dosing relative to baseline, s.c. once every two days, high-fat high-sugar feed, x±s; for Blood glucose decline rate E value: 7th day, versus control group, recorded as 0 if not significantly different from control. As for the experimental part:
The experimental animals in this Example were wild-type hamsters, and the hamsters were grouped and administered according to the following standard: • 1) Control group: injection of excipient samples, subcutaneous injection (administration of […]), once every two days; • 2) Alirocumab group: injection of Alirocumab sample (Alirocumab 10 mg/kg), subcutaneous injection, once every two days; • 3) Semaglutide group: injection of semaglutide sample (semaglutide 0.12 mg/kg), subcutaneous injection, once every two days; • 4) Alirocumab+semaglutide group: injection of Alirocumab (Alirocumab 10 mg/kg) and semaglutide (semaglutide 0.12 mg/kg) by subcutaneous injection, the frequency of administration was once every two days.
On the first day of the experiment, each group of wild-type hamsters was given high-fat and high-sugar feed (containing 10% lard, 10% cholesterol, and 60% fructose) and injected with drugs according to the above dosing regimen for each group, and blood was collected from the inner canthus vein of the hamster on the day before administrating and 7th day after dosing, plasma was anticoagulated with sodium heparin, and plasma was obtained by centrifugation of the whole blood at 4° C. for 10 min at 4000 rpm, and the blood glucose level was detected by glucose assay kit (Biosino Bio-Technology and Science Incorporation).
The obtained blood glucose data were normalized according to the following method: taking the blood glucose of each group before the administration of the drug as the baseline, the relative concentration of the corresponding time point obtained by comparing the blood glucose at the monitoring point after the administration of the drug to the baseline glucose, the relative concentration of blood glucose was expressed as x±s, and the decline rate of the blood glucose of each administration group was calculated by using the analysis of variance using the GraphPad Prism software, in which x means the average value of data, and s denotes the standard deviation.
Decline rate of blood glucose: E=[(relative blood glucose of […])/relative blood glucose of control group]×100%
Note: If there is no significant difference between the relative blood glucose value of the administered group and the relative blood glucose of the control group, the value of E is recorded as 0.
Calculation method of synergistic effect: the determination was made by using Zhengjun Jin's Q value, in which the Q value was obtained by the following formula: Q=Ea+b/(Ea+Eb−Ea×Eb); wherein Ea+b indicated the decline rate of detection indexes of the combination and mixed administration of the two drugs, and Ea, Eb indicated the decline rate of detection indexes of the two drugs used alone. If Q is between 0.85 and 1.15, it means that the two drugs have an additive effect; Q>1.15, the two drugs have a synergistic effect; Q<0.85, the two drugs have an antagonistic effect.

Series [2] concerns wild-type hamsters. Nature of the series: Effect of the combination of Evolocumab and Compound 5 on blood glucose in hamsters. The format is in vivo, hamster.
Procedure: The experimental animals in this Example were wild-type hamsters, and the hamsters were grouped and administered according to the following standard: • 1) Control group: subcutaneous injection of excipient samples, subcutaneous injection (administration of 2 μL/kg), once every two days; • 2) Evolocumab group: injection of Evolocumab samples (Evolocumab 30 mg/kg) by subcutaneous injection, once every two days; • 3) Compound 5 group: injection of compound 5 sample (compound 5: 0.12 mg/kg), using subcutaneous injection, once every two days; • 4) Evolocumab+Compound 5 group: injection of a pharmaceutical combinations containing Evolocumab and Compound 5 (Evolocumab 30 mg/kg, Compound 5: 0.12 mg/kg) by subcutaneous injection once every two days.
On the first day of the experiment, each group of wild-type hamsters was given high-fat and high-sugar feed (containing 10% lard, 10% cholesterol, and 60% fructose) and injected with samples according to the dosing regimen described above for each group, and blood was collected from the inner canthus vein of the hamsters on the day before administration and 7th day after administration, and plasma was anticoagulated with heparin sodium, and plasma was obtained by centrifugation for 10 min at 4° C. at 4,000 rpm, and the blood glucose level was measured by glucose assay kit (Biosino Bio-Technology and Science Incorporation.) […]
The subject of series [3] is transgenic mice overexpressing human PCSK9. Kind of series: Effect of Evolocumab in combination with Compound 5 on blood lipid (LDL-C) in hyperlipidemic mice. The settings on record: conclusion in words from Table 3. The format is in vivo, mouse. The procedure:
In this example, experimental animals were transgenic mice overexpressing human PCSK9 (4 weeks old). After being fed a high-fat diet for 37 days, their fasting lipid levels were measured.
On the 5th day after dosing, the lipid levels of the mice were measured. The lipid measurement method was as follows: Blood was collected from the mice via the inner canthus vein, plasma was obtained by centrifuging whole blood at 4° C. and 4000 rpm for 10 minutes with sodium heparin as an anticoagulant. LDL-C levels were measured using an LDL-C assay kit (Nanjing Jiancheng Bioengineering Institute).
The blood lipid data obtained were normalized using the following method: The blood lipid of each group before administration was taken as baseline, and the relative concentration of lipid at the corresponding time point obtained by comparing the blood lipid at the monitoring points after administration with that before administration. The relative concentration of blood lipid is represented as ‘x±s’, with ‘x’ representing the mean value of the data and ‘s’ representing the standard deviation. Variance analysis was conducted using GraphPad Prism software.

For series [4], the system named is humanized mice overexpressing PCSK9 (B6-hPCSK9). Nature of the series: Animal efficacy of Evolocumab in combination with Compound 5: body weight, fasting blood glucose, LDL-C. It counts as in vivo, mouse.
Source text: In this example, humanized mice overexpressing PCSK9 (B6-hPCSK9) (males, 6 weeks old) were used, totaling 30 mice. These humanized mice were divided into six groups: K0-K5, with 5 mice per group. K0 served as the NC control group (fed a high-fat feed throughout the experiment), while K1-K5 were experimental groups. After a 1-week adaptation period with growth and breeding feed (Keao Xieli Feed), they were fed a high-fat diet for one month (Xietong Pharmaceutical Bio-engineering), and dosing was initiated after the high-fat diet feeding.
The dosing for each experimental group was done via subcutaneous injection once in total, with the dose administrated calculated based on the dose of Evolocumab. […] If the dose was doubled (2×), the dose was doubled accordingly.
Throughout the experiment, various indicators were monitored with the following frequencies: for weight monitoring, the weight was measured and recorded before dosing and then every other day after blood collection, this was performed a total of 3 times. […] Blood glucose levels were measured using a glucose assay kit (provided by Biosino Bio-Technology and Science Inc). […] LDL-C in the serum samples was measured using an LDL-C test kit (Nanjing Jiacheng Bioengineering Institute).
Series [5] can be described thus: CEX-HPLC acid-to-base peak ratio of Evolocumab (storage stability). Particulars: 4° C., reference of one-month study of Suspension Formulation-2. It counts as physicochemical.
The nature of series [6]: Reduced CE-SDS light and heavy chain ratio of Evolocumab (storage stability). It counts as physicochemical. The settings on record: 4° C., reference of one-month study of Suspension Formulation-2. The text has this: The Acidic and Alkaline Peak ratio of Evolocumab monoclonal antibody in Suspension Formulation-2 falls within the quality standard range of originator product. (main peak≥51%, alkaline peak≤16%). • (4) The results of reduced CE-SDS testing for the light-heavy chain ratio of Evolocumab monoclonal antibody in Suspension Formulation-2 are presented in Table 22: […]

On to Semaglutide, for which, in the series on wild-type hamsters [1], the “Blood glucose (relative concentration)” value is 0.61 ± 0.062 and the “Blood glucose decline rate E value” is on record as 14.1%.
For the molecule Alirocumab, in the series with wild-type hamsters [1], the “Blood glucose (relative concentration)” value was 0.71 ± 0.049 and the “Blood glucose decline rate E value” came out at 0%. Further, the hypoglycemic function result with wild-type hamsters [1] (conclusion in words from Table 1) is on record as “did not show a hypoglycemic function”.

B1: Evolocumab (antibody, chains of the INN, looked up, V domains shown)
VH: EVQLVQSGAEVKKPGASVKVSCKASGYTLTSYGISWVRQAPGQGLEWMGWVSFYNGNTNYAQKLQGRGTMTTDPSTSTAYMELRSLRSDDTAVYYCARGYGMDVWGQGTTVTVSS
VL: ESALTQPASVSGSPGQSITISCTGTSSDVGGYNSVSWYQQHPGKAPKLMIYEVSNRPSGVSNRFSGSKSGNTASLTISGLQAEDEADYYCNSYTSTSMVFGGGTKLTVL
notes: PCSK9 antibody; source is Repatha®, commercially available from Amgen
Take B1: the “Blood glucose decline rate E value” in the series on wild-type hamsters [2] (7th day, versus control group, recorded as 0 if not significantly different from control) amounted to 0%. For the same molecule, in the series with wild-type hamsters [2] (conclusion in words from Table 2), the hypoglycemic function result was “did not show a hypoglycemic function”. Moreover, in series [3], the lipid-lowering effect result was “lipid-lowering effects”. The body weight entry in series [4] (single s.c. 1× dose (K2 530 ug/kg Compound 5; K3, K4 12.3 mg/kg Evolocumab), FIGS. 1-2) is “did not experience weight loss”. Also, the LDL-C entry in series [4] (single s.c. 1× dose (K3, K4 12.3 mg/kg Evolocumab), FIG. 5) is reported as “ability to lower LDL-C levels was consistent”.

B2: Laboratory-Purified Evolocumab: Commercially available Evolocumab (Repatha®) purified in the laboratory, 140 mg/ml (antibody, chains of the INN, looked up, V domains shown)
VH: EVQLVQSGAEVKKPGASVKVSCKASGYTLTSYGISWVRQAPGQGLEWMGWVSFYNGNTNYAQKLQGRGTMTTDPSTSTAYMELRSLRSDDTAVYYCARGYGMDVWGQGTTVTVSS
VL: ESALTQPASVSGSPGQSITISCTGTSSDVGGYNSVSWYQQHPGKAPKLMIYEVSNRPSGVSNRFSGSKSGNTASLTISGLQAEDEADYYCNSYTSTSMVFGGGTKLTVL
For B2, the “Alkaline Peak (%)” value in series [5] is 10.569%. Moreover, the “Pre-LC + LC + HC(%)” value in series [6] is on record as 98.79%.
